Reference: the DeepSol protein solubility set

assay: soluble on expression in E. coli; label from the status in PepcDB or PDB records

Sequence	soluble on expression in E. coli
MGSDKIHHHHHHMQISFISHEYPPVSGGGSTALHEYASGLATRGHAVQVVTVGTGAHDTVDTEDGVQVVRLAAGRKSLLAPSKAELIRSCAALRLKSMPHLRRHEPEVLVAFFAFPAGFLAAPLAAKLNIPLVVSLRGSDVPGFSAKRLGVFGPLLPYLFRRATRHAAAVVPNGRRLADMAAPYLHTGSRVQVIPNGVDTLRFAPQGAEHGSMGGPLRVLFVGQMIARKQCLVLAQALHEVAARGVPLQVSFAGSGPLEQDIRRIVSSLDPVVGVTFTGHVPRNAIADLYGAHDVLVHLSQAEGVSNVLMEALSSGLCLVAADTAVDAAIDGVPRQAPAEDGGIILLPVDCGPVVLGATLAGLACNRSLVEEQQRLARRTALKNSWQVRVGELEDLLTGSIAGCQAS	not soluble
MCFIMSKRNTQLRRHTIVKLVNEQGEVSVEALSSQFETSEVTIRKDLASLEKNGQLLRRYGGAIALPKEVMHDELNEKVSVRKISLAKAAAKLIRDHNRIVIDSGSTTAALIQQLNDKRGLVVMTNSLHVANALNELENEPTLLMTGGTWDTHSESFQGKVAESVLRSYDFDQLFIGADGIDLDRGTTTFNELVGLSKVMAEVSREVIVMIESDKVGRKIPNLELSWDNIDVLVTDHELSDEFAKQIESHQVRVIRATVK	not soluble
TAMRALIESLPTITEGEGRFVPYNDDEGGEEENVCTTEHVEMAKAKNWKVLTSWGEPFPGITALISIEGESEYSVYAQDGILYLSGMEQGLPVQ	not soluble
SYFSIFSPSFTSLRHDGKPVQCSGLDMQFDPSEPGFYDDPDLSYSIEKPITKWDEKRNQWFESHPSFKPGSENRIVMVTGSQSSPCKNPIGDHLLLRCFKNKVDYARIHGHDIFYSNSLLHPKMNSYWAKLPVVKAAMLAHPEAEWIWWVDSDAIFTDMEFKPPLHRYRQHNLVVHGWPNIIYEKQSWTALNAGVFLIRNCQWSMDLIDTWKSMGPVSPDYKKWGPIQRSIFKDKLFPESDDQTALIYLLYKHKELYYPKIYLEAEYYLQGYWIGVFGDFANVTERYLEMEREDDTLRRRHAEKVSERYGAFREERFLKGEFGGRGSRRRAFITHFTGCQPCSGDHNPSYDGDTCWNEMTRALNFADNQVMRVYGYVHSDLSKTSPLQPLPFDYPNEAW	soluble
MASVTFSVPKGFTEFSGLRSSSASLPFGKKLSSDEFVSIVSFQTSAMGSSGGYRKGVTEAKLKVAINGFGRIGRNFLRCWHGRKDSPLDIIAINDTGGVKQASHLLKYDSTLGIFDADVKPSGETAISVDGKIIQVVSNRNPSLLPWKELGIDIVIEGTGVFVDREGAGKHIEAGAKKVIITAPGKGDIPTYVVGVNADAYSHDEPIISNASCTTNCLAPFVKVLDQKFGIIKGTMTTTHSYTGDQRLLDASHRDLRRARAAALNIVPTSTGAAKAVALVLPNLKGKLNGIALRVPTPNVSVVDLVVQVSKKTFAEEVNAAFRDSAEKELKGILDVCDEPLVSVDFRCSDFSTTIDSSLTMVMGDDMVKVIAWYDNEWGYSQRVVDLADIVANNWK	soluble
MGSDKIHHHHHHMTSQDTADTGMADMDMTDTGMFLAKADIFASLTPEEDRAWSQLCTVESVSGGTIVLDYGIRPEIVLVVLSGALRATLRVSAGKELFLDMIGPGGTMAEMDAIRAEGYNLCLMATTDATLVRMPVDVFNDIIAQKHTVCLSLLSVLVQRMHVLHARICEFSYLDVRHRLYTTLLRLSKPSEDKPQQRTISPVIIHAALAEHVGARRETVSREMSRLVQDGVIERNRNAIVIRQPHELLRRLSQFDFA	not soluble
ALKPTIYKFRIALSDMNNDYYDSKNLTIALHPSEKPQRMLARILAFCLNAQKDLEFTKGLSTTEEPDLWHVADDQSITHWIEIGEPEPDRIKKASRLAKQVKVYTYNTKAPVWWEKMSGKFSMLPVSVESFDYDAIDMICQHLDRGTNLSVMITGTSIFVDVNDQHVEVTVKELQS	soluble
MQSAAVSGRLICNGRPAVDVKLKLYENEIFFDRLMEEGRTDSNGQFRVLGSKREITTIDPKLNVYHKCNYNGLCDQKFTIHIPKDYVTSGSQPSRTFDIGTLNLANNFPGQSTDCLN	not soluble
MKSNTSQQRPYQEVGAMIRDLIVQTPYRPGERLPPEREIAERLNVTRTVVREALIMLEIKGLVEVRRGAGIYVLDSADNNEMEGADVNHCNDAGPFELLQARQLLESNIAEFAALQATREDIIKMRQALQLEERELASSAPGGSESGDMQFHLAIAEATHNSMLVELFRQSWQWRENNPMWLQLHSHLGDTLYRKEWLVDHKQILAALIKKDARAAKLAMWQHLENVKQRLLEFSNVDDIYFDGYLFESWPLDNVDA	not soluble
MGSDKIHHHHHHMEILQRQLLFKLAVCQGIGNLGILKVLQEAIAQKRVDFSSTEIIRIAEIKKYRELFEQSWLHHTIHSEALYIRQCQHQFMTILDAVYPKLLREIYNPPAILFYRGNLQLLSRRKIGIVGARYATSYGLRVTEALVPKIVKEGFTIVSGLAKGIDSRSHEMAIQNGGQTIGILGTGLDVYYPYEKKELQQTMKQNQLVLTEYVNGSGPKKYHFPARNRIIAGLSLGVCVMEARKNSGSLITAQAAMDYGREVFAVPGSIFQSFSTGCHELIQDGAKCVQTIDDICEEL	not soluble
MAHHHHHHMADDEPEYREAANPIEAFIDCARYDEPGDAEALRTLLSNSPSFLNSQDEQGRTALHVAAANGRLKVLETLLGYNPTPDVPNNEGNTALHFAALNNQTAAARLLLRHGWRASARNAFNKTPIQLIYGKQFEDMELLLLGHDDELEQFSGQASQAARGPAVVNEATVQQQPAVEAERATNAEQPRVNPVQKEQESDPTTLLGSVGVDEIE	soluble
MLPKAARIPHAMTLHGDTRIDNYYWLRDDTRSQPEVLDYLQQENSYGHRVMASQQALQDRILKEIIDRIPQREVSAPYIKNGYRYRHIYEPGCEYAIYQRQSAFSEEWDEWETLLDANKRAAHSEFYSMGGMAITPDNTIMALAEDFLSRRQYGIRFRNLETGNWYPELLDNVEPSFVWANDSWIFYYVRKHPVTLLPYQVWRHAIGTPASQDKLIYEEKDDTYYVSLHKTTSKHYVVIHLASATTSEVRLLDAEMADAEPFVFLPRRKDHEYSLDHYQHRFYLRSNRHGKNFGLYRTRMRDEQQWEELIPPRENIMLEGFTLFTDWLVVEERQRGLTSLRQINRKTREVIGIAFDDPAYVTWIAYNPEPETARLRYGYSSMTTPDTLFELDMDTGERRVLKQTEVPGFYAANYRSEHLWIVARDGVEVPVSLVYHRKHFRKGHNPLLVYGYGSYGASIDADFSFSRLSLLDRGFVYAIVHVRGGGELGQQWYEDGKFLKKKNTFNDYLDACDALLKLGYGSPSLCYAMGGSAGGMLMGVAINQRPELFHGVIAQVPFVDVVTTMLDESIPLTTGEFEEWGNPQDPQYYEYMKSYSPYDNVTAQAYPHLLVTTGLHDSQVQYWEPAKWVAKLRELKTDDHLLLLCTDMDSGHGGKSGRFKSYEGVAMEYAFLVALAQGTLPATPAD	not soluble
AHHHHHHGSVRVAIIGQGYVASIFAVGLERIKEGELGYYGIPLANELPIKVEDIKIVASYDVDKTKIGLPLSEIVQRYWKGNVPESLQEVFVRKGIHLGSLRNLPIEATGLEDEMTLKEAIERLVEEWKEKKVDVIINVPTTEAFTPFGKLEELEKAIKDNNKERLTATQAYAYAAAQYAKEVGGAAFVNAIPTLIANDPAFVELAKESNLVIFGDDGATGATPLTADILGHLAQRNRHVLDIVQFNIGGNTDFLALTDKERNKSKEYTKSSVVEDILGYDAPHFIKPTGYLEPLGDKKFIAMHIEYISFNGARDELIIAGRINDSPALAGLLVDLARLGKIAVDKKEFGTVYPVNAFYMKNPGPKEAKNIPRIIAYEKLRQWAGLPPRYL	soluble
MGSDKIHHHHHHMSLHAPTFSKLFSGVIWKIIADSDTGTVYVETRDGDKRKALFHAFDLQAKKMLWADVSILDAWWSSLKIANKGNLLVVKFNDPDMPEQRGFAVIDGKTSKLLWGKDDAQVMQAEPDGIIVAEGKEEDSSYLKLDWAAGKTLGAVSVKEMFSGFNKKAQTRSFVLYPFHFEEENSFFSKIKEYIEIITGHKAVRMIEYLEKGDKVLISYYIYEEEKLTNFILVADEKGALLVHEKLNAGLKGIGMDTFFVLKDQLIVVKNNNELQSYVIK	not soluble
SSQQRPARKLPSLLLDPTEETVRRRCRDPINVEGLLPSKIRINLEDNVQYVSMRKALKVKRPRFDVSLVYLTRKFMDLVRSAPGGILDLNKVATKLGVRKRRVYDITNVLDGIDLVEKKSKNHIRWIGSDLSNFGAVPQQKKLQEELSDLSAMEDALDELIKDCAQQLFELTDDKENERLAYVTYQDIHSIQAFHEQIVIAVKAPAETRLDVPAPREDSITVHIRSTNGPIDVYLCEVEQGQTSNKRSEGVGTSSSESTHPEGPEEEENPQQSEELLEVSN	soluble
MPSLLLLGAGHAHMTVMEAIPRLIERGHSVTVVGPGERHYYSGMGPGMLGGHYSPEDISFPVRQMVTQRGGTFITARATRIDPQRKHVVLDSGQELAYDVCSCNTGSHVPSSIVDGDATDVFPVKPIENLLAGRESIRRRASRGPVRIAVVGGGPAALEVAGNAAAALTQTGAQGNVAMYAGSSFLRRFPARVRELARKELQKARVKLHEGAYASAVHTGEVVLDNGERYEADIIFTALGVVPSPLFAASGLPVGKDGGLAVDAHLRCTEYDDIFGGGDCIWFTPQPLAKVGVYAVRQNPVLLHNLAARLEGGPLLTFSPGGEYLLIFNTGSGRGILHKAGFTFAGRLAFMVKDWIDRRFIRRFQPHLEHHHHHH	not soluble
NKFNTWNDSRGNYWSDYEGSDENGDGIGDSAYAVNPEAGSMDYMPLMEYLHSSPVLPTARFTSDITEGFAPLSVRFKDFSENATSRLWMFGDGNTSDSPSPLHTFFNEGEYIVSLIVSNENDSDSASVTIRA	soluble
MTTRVLYVRHAHAHGRQTWGGDDNKRPLDKKGRRQAEMLVPMLLPFKPTAIYSAVPDRCQATALPLADELGLDVSVNRLFGDDAWETDPEACKKRFTDVVAQGGVPMIVGQGDIIPEMIKWFSENGTLPIDEKIKAKKGSVWVLSFHDGVFTGADYLEHHHHHH	soluble
MASGTASTKIVIAGGFGSGKTTFVGAVSEIMPLRTEAMVTDASAGVDMLEATPDKRSTTVAMDFGRITLGEDLVLYLFGTPGQRRFWFMWDDLVRGAIGAIVLVDCRRLQDSFAAVDFFEHRNLPFLIAINEFDSAPRYPVSAVRDALTLPAHIPVINVDARNRRSATDALIAVSEYALATLSPLEHHHHHH	not soluble
MKDLLQAQQKLIPDLIDKMYKRFSILTTISKNQPVGRRSLSEHMDMTERVLRSETDMLKKQDLIKVKPTGMEITAEGEQLISQLKGYFDIYADDNRLSEGIKNKFQIKEVHVVPGDADNSQSVKTELGRQAGQLLEGILQEDAIVAVTGGSTMACVSEAIHLLPYNVFFVPARGGLGENVVFQANTIAASMAQQAGGYYTTMYVPDNVSETTYNTLLLEPSVINTLDKIKQANVILHGIGDALKMAHRRQSPEKVIEQLQHHQAVGEAFGYYFDTQGQIVHKVKTIGLQLEDLESKDFIFAVAGGKSKGEAIKAYLTIAPKNTVLITDEAAAKIILE	not soluble
MGSDKIHHHHHHMNAIQCETRTYEREYNTHDHSYGQMLFALHGAMEIQTPVYDTFQLEANFGLYLPPHVNHRFRAVARNEFIVVDIPARFLGDAVTTEQHVALDETWGALCHLFRGEAYQPASSQSLRPLVDYLTSKLAKKTLPASIHYMKQHFSEPLSLETLAAIEHYHPAYYSSWFKGYTGMSPSEYLQKLRVKAAKRLLGETTWSVARISIEVGYTHPSGLVRAFTKVEGMTPSAYRNTLH	not soluble
